According to publication PMC4738354, “Volta phase plate cryo-EM of the small protein complex Prx3” (Nature Communications, 2016):

Molecular target: the molecule itself
Assay: cryo-EM structure; single-particle cryo-EM with Volta phase plate, frozen-hydrated hPrx3 in thick ice; two data sets (7.3 Å and 4.4 Å reconstructions); D6 symmetry imposed in 3D classification of the first data set

B1: human peroxiredoxin-3 (natural protein, UniProt P30048 62-256, looked up)
chain: APAVTQHAPYFKGTAVVNGEFKDLSLDDFKGKYLVLFFYPLDFTFVCPTEIVAFSDKANEFHDVNCEVVAVSVDSHFSHLAWINTPRKNGGLGHMNIALLSDLTKQISRDYGVLLEGSGLALRGLFIIDPNGVIKHLSVNDLPVGRSVEETLRLVKAFQYVETHGEVCPANWTPDSPTIKPSPAASKEYFQKVNQ
notes: peroxiredoxin-3 (Prx3), human mitochondrial isoform; also called hPrx3; Prx3; source: Rosetta (DE3) cells (Novagen), purified (HisTrap, Superdex 200 gel filtration, TEV cleavage of the His-tag); copies: 12
stoichiometry N: 12
